In publication PMC5050587, “Enzymatic fine-tuning for 2-(6-hydroxynaphthyl) β-D-xylopyranoside synthesis catalyzed by the recombinant β-xylosidase BxTW1 from Talaromyces amestolkiae” (Microbial Cell Factories, 2016):

How the values were obtained:
[1] = biological target: T1, β-xylosidase BxTW1 (rBxTW1) (Talaromyces amestolkiae, UniProt A0A0H3W535); assay: competitive product inhibition of pNPX hydrolysis by purified enzyme; type: biochemical
T1 construct: mature BxTW1 without its signal peptide, expressed in Pichia pastoris GS115
T1 sequence (A0A0H3W535 22-797): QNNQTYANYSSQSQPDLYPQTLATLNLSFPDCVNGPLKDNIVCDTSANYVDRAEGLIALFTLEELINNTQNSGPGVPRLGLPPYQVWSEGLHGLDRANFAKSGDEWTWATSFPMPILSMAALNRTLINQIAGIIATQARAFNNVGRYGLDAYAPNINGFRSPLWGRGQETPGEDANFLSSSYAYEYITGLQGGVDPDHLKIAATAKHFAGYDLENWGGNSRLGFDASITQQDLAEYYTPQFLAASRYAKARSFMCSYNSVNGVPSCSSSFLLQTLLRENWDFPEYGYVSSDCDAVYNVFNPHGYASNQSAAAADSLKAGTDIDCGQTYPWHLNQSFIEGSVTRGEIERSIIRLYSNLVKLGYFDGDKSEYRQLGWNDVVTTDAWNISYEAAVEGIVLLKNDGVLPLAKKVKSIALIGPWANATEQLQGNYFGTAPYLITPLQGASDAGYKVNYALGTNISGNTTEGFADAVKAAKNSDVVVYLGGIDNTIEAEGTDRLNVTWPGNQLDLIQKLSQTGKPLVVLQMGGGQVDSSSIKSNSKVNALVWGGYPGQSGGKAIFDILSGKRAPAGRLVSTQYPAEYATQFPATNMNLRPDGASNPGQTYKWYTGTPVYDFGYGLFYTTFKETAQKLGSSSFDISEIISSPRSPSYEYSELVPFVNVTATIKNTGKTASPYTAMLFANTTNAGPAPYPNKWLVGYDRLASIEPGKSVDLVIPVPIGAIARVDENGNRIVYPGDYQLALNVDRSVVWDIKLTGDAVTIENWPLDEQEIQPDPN

[2] = biological target: recombinant β-xylosidase BxTW1 from Talaromyces amestolkiae (Talaromyces amestolkiae); assay: SEC; Superose 12 HR 10/30 column, molecular mass in native conditions, performed as described previously [20]
[3] = substrate: O=[N+]([O-])c1ccc(O[C@@H]2O[C@@H](CO)[C@H](O)[C@H]2O)cc1; assay: Michaelis-Menten kinetics of purified enzyme (Km); type: biochemical, Talaromyces amestolkiae
[4] = substrate: OC1OC[C@@H](O[C@@H]2OC[C@@H](O[C@@H]3OC[C@@H](O[C@@H]4OC[C@@H](O[C@@H]5OC[C@@H](O)[C@H](O)[C@H]5O)[C@H](O)[C@H]4O)[C@H](O)[C@H]3O)[C@H](O)[C@H]2O)[C@H](O)[C@H]1O; assay: Michaelis-Menten kinetics of purified enzyme (Km); type: biochemical, Talaromyces amestolkiae
[5] = substrate: OC1OC[C@@H](O[C@@H]2OC[C@@H](O[C@@H]3OC[C@@H](O[C@@H]4OC[C@@H](O[C@@H]5OC[C@@H](O[C@@H]6OC[C@@H](O)[C@H](O)[C@H]6O)[C@H](O)[C@H]5O)[C@H](O)[C@H]4O)[C@H](O)[C@H]3O)[C@H](O)[C@H]2O)[C@H](O)[C@H]1O; assay: Michaelis-Menten kinetics of purified enzyme (Km); type: biochemical, Talaromyces amestolkiae
[6] = substrate: OC1OC[C@@H](O[C@@H]2OC[C@@H](O)[C@H](O)[C@H]2O)[C@H](O)[C@H]1O; assay: Michaelis-Menten kinetics of purified enzyme (Km); type: biochemical, Talaromyces amestolkiae
[7] = substrate: OC1OC[C@@H](O[C@@H]2OC[C@@H](O[C@@H]3OC[C@@H](O)[C@H](O)[C@H]3O)[C@H](O)[C@H]2O)[C@H](O)[C@H]1O; assay: Michaelis-Menten kinetics of purified enzyme (Km); type: biochemical, Talaromyces amestolkiae
[8] = substrate: OC1OC[C@@H](O[C@@H]2OC[C@@H](O[C@@H]3OC[C@@H](O[C@@H]4OC[C@@H](O)[C@H](O)[C@H]4O)[C@H](O)[C@H]3O)[C@H](O)[C@H]2O)[C@H](O)[C@H]1O; assay: Michaelis-Menten kinetics of purified enzyme (Km); type: biochemical, Talaromyces amestolkiae
[9] = substrate: O=[N+]([O-])c1ccc(O[C@@H]2OC[C@H](O)[C@H](O)[C@H]2O)cc1; assay: Michaelis-Menten kinetics of purified enzyme (Km); type: biochemical, Talaromyces amestolkiae
[10] = substrate: O=[N+]([O-])c1ccc(O[C@@H]2OC[C@@H](O)[C@H](O)[C@H]2O)cc1; assay: Michaelis-Menten kinetics of purified enzyme (Km); type: biochemical, Talaromyces amestolkiae

`OC1OC[C@@H](O)[C@H](O)[C@H]1O` (stereo partly shown) [xylose] gave a Ki [1] of 1700 ± 300 µM.

“recombinant β-xylosidase BxTW1 from Talaromyces amestolkiae (enzyme)” gave a stoichiometry N [2] of 2.

B1: β-xylosidase BxTW1 (rBxTW1) (Talaromyces amestolkiae) (protein)
chain: T1 sequence (A0A0H3W535 22-797)
notes: mature BxTW1 without its signal peptide, expressed in Pichia pastoris GS115
B1 was tested, and the Km [3] was 4300 ± 300 µM, the Vmax [3] was 14.9 µmol/min/mg and the kcat [3] was 49.8 s⁻¹. It also gave a kcat/Km [3] of 12000 M⁻¹ s⁻¹, a Km [4] of 220 ± 10 µM and a Vmax [4] of 4.48 µmol/min/mg. The kcat [4] was 14.9 s⁻¹, the kcat/Km [4] was 68000 M⁻¹ s⁻¹ and the Km [5] was 210 ± 20 µM. The Vmax [5] was 4.27 µmol/min/mg, the kcat [5] was 14.2 s⁻¹ and the kcat/Km [5] was 69000 M⁻¹ s⁻¹. The Km [6] was 510 ± 30 µM, the Vmax [6] was 26.4 µmol/min/mg and the kcat [6] was 87.9 s⁻¹. The kcat/Km [6] was 170000 M⁻¹ s⁻¹, the Km [7] was 190 ± 10 µM and the Vmax [7] was 9 µmol/min/mg. It also gave a kcat [7] of 30 s⁻¹, a kcat/Km [7] of 160000 M⁻¹ s⁻¹ and a Km [8] of 200 ± 10 µM. It also gave a Vmax [8] of 6.34 µmol/min/mg, a kcat [8] of 21.1 s⁻¹ and a kcat/Km [8] of 100000 M⁻¹ s⁻¹. For the same molecule, the Km [9] was 1600 ± 100 µM, the Vmax [9] was 8.3 µmol/min/mg and the kcat [9] was 28 s⁻¹. The kcat/Km [9] was 17000 M⁻¹ s⁻¹, the Km [10] was 200 ± 10 µM and the Vmax [10] was 20.8 µmol/min/mg. For the same molecule, the kcat [10] was 69.3 s⁻¹ and the kcat/Km [10] was 336000 M⁻¹ s⁻¹.
